Test results: the supplement of paper PMC7877785
± gives the uncertainty stated by the source.

Assay: self-splicing fitness, log relative to wild type (ln ratio); higher = more splicing; Tetrahymena group I intron in knt gene, E. coli kanamycin selection, DiMSum; sequences stand for … in CUCUCU…GGAGGGAAAAGUUAUCAGGCAUGCACCUGGUAGCUAGUCUUUAAACCAAUAGAUUGCAUCGGUUUAAAAGGCAAGACCGUCAAAUUGCGGGAAAGGGGUCAACAGCCGUUCAGUACCAAGUCUCAGGGGAAACUUUGAGAUGGCCUUGCAAAGGGUAUGGUAAUAAGCUGACGGACAUGGUCCUAACCACGCAGCCAAGUCCUAAGUCAACAGAUCUUCUGUUGAUAUGGAUGCAGUUCACAGACUAAAUGUCGGUCGGGGAAGAUGUAUUCUUCUCAUAAGAUAUAGUCGGACCUCUCCUUAAUGGGAGCUAGCGGAUGAAGUGAUGCAACACUGGAGCCGCUGGGAACUAAUUUGUAUGCGAAAGUAUAUUGAUUAGUUUUGGAGUACUCGUGGUCG
In short: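 Six replicate transformations of E. coli BL21(DE3) with a pET-22b(+) library were grown overnight at 37°C or 30°C. The library randomised all eight P1ex-region intron nucleotides, the intron lying in the knt kanamycin-resistance gene, and plates were LB agar with or without 25 μg/mL kanamycin plus 100 μg/mL carbenicillin, 50 μM IPTG and 0.2% rhamnose. Pooled colonies were amplicon-sequenced on an Illumina HiSeq 2500, and fitness is the DiMSum error-weighted combination of wild-type-normalised replicate fold changes, kanamycin versus none.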

Row | Sequence | self-splicing fitness (ln) (30 °C) | self-splicing fitness (ln) (37 °C)
1 | AGUAAGCAAUAUUACGUAUU | -2.89 ± 0.12 | -3.05 ± 0.19
2 | GUGUAGCAAUAUUACGGAUC | -1.04 ± 0.13 | 0.406 ± 0.17
3 | GUGGAGCAAUAUUACGUUUC | -3.39 ± 0.37 | -1.9 ± 0.21
4 | CAGUAGCAAUAUUACGCUAG | -2.14 ± 0.1 | -1.34 ± 0.1
5 | GAUGAGCAAUAUUACGAUGU | -2.63 ± 0.25 | -2.15 ± 0.35
6 | UCUUAGCAAUAUUACGGUAC | -3.68 ± 0.41 | -2.51 ± 0.48
7 | ACCUAGCAAUAUUACGACUC | -0.748 ± 0.088 | -0.405 ± 0.098
8 | AGAAAGCAAUAUUACGGCGC | -0.688 ± 0.12 | -1.01 ± 0.15
9 | GAGUAGCAAUAUUACGGCCG | -1.24 ± 0.15 | -0.0588 ± 0.23
10 | CACUAGCAAUAUUACGCUAG | -3.17 ± 0.26 | -2.41 ± 0.27
11 | UCCGAGCAAUAUUACGUCGA | -1.21 ± 0.16 | -0.238 ± 0.13
12 | CAGGAGCAAUAUUACGCGGA | -2.78 ± 0.25 | 
13 | UCCAAGCAAUAUUACGGGUG | -1.63 ± 0.05 | -0.583 ± 0.06
14 | UUAGAGCAAUAUUACGGGUC | -3.07 ± 0.18 | -1.69 ± 0.22
15 | AAUUAGCAAUAUUACGCACG | -2.18 ± 0.2 | -0.641 ± 0.17
16 | CAGUAGCAAUAUUACGUAUU | -3.48 ± 0.2 | -1.81 ± 0.2
17 | CUACAGCAAUAUUACGCUCG | -1.49 ± 0.089 | -1.46 ± 0.13
18 | CCCCAGCAAUAUUACGACAG | -3.96 ± 0.12 | -2.92 ± 0.14
19 | CCUGAGCAAUAUUACGUCGU | -2.02 ± 0.43 | -2.06 ± 0.27
20 | AUGCAGCAAUAUUACGCCCU | -0.387 ± 0.22 | 0.0709 ± 0.25
21 | UGAAAGCAAUAUUACGCGCC | -0.832 ± 0.21 | -0.728 ± 0.23
22 | CGGCAGCAAUAUUACGGCGU | -1.6 ± 0.097 | -0.949 ± 0.1
23 | CUGUAGCAAUAUUACGAUAC | -2.43 ± 0.29 | 
24 | CGGGAGCAAUAUUACGUGCA | -3.02 ± 0.27 | -2.29 ± 0.22
25 | GUCUAGCAAUAUUACGCAUC | -0.727 ± 0.13 | 0.171 ± 0.14
26 | UGCCAGCAAUAUUACGUGGC | -3.24 ± 0.19 | -3.19 ± 0.25

Row | Sequence | self-splicing fitness (ln) (30 °C) | self-splicing fitness (ln) (37 °C)
27 | UGCUAGCAAUAUUACGAUUU | -2.4 ± 0.18 | -1.1 ± 0.16
28 | GGCUAGCAAUAUUACGUGUG | -0.503 ± 0.085 | -0.362 ± 0.083
29 | GCUAAGCAAUAUUACGUUUG | -2.16 ± 0.09 | -0.954 ± 0.12
30 | CCCAAGCAAUAUUACGGGAG | -3.79 ± 0.13 | -2.29 ± 0.13
31 | UAUAAGCAAUAUUACGGGUU | -3.04 ± 0.16 | -3.53 ± 0.23
32 | GGCCAGCAAUAUUACGGUCA | -0.963 ± 0.1 | -0.389 ± 0.1
33 | CUACAGCAAUAUUACGAAGU | -4.24 ± 0.29 | -2.52 ± 0.19
34 | UCGGAGCAAUAUUACGACUA | -1.22 ± 0.37 | -1.83 ± 0.38
35 | GUGCAGCAAUAUUACGUCGA | -1.22 ± 0.096 | -0.927 ± 0.1
36 | ACCCAGCAAUAUUACGAUAG | -3.3 ± 0.1 | -1.78 ± 0.1
37 | AUCUAGCAAUAUUACGCGGA | -1.69 ± 0.26 | -2.53 ± 0.23
38 | UCUCAGCAAUAUUACGUACU | -3.39 ± 0.28 | -1.2 ± 0.19
39 | GAAUAGCAAUAUUACGGGGU | -3.77 ± 0.21 | -3.71 ± 0.21
40 | UAGUAGCAAUAUUACGCAAG | -2.78 ± 0.45 | -1.25 ± 0.24
41 | AGGCAGCAAUAUUACGUUUU | -1.59 ± 0.065 | -0.435 ± 0.079
42 | CUAGAGCAAUAUUACGUGCU | -3.54 ± 0.28 | -0.493 ± 0.15
43 | CAGAAGCAAUAUUACGGAUA | -2.48 ± 0.13 | -1.43 ± 0.11
44 | CAGGAGCAAUAUUACGACUC | -2.74 ± 0.11 | -2.14 ± 0.15
45 | AGGGAGCAAUAUUACGGUGC | -4.76 ± 0.45 | -3.06 ± 0.47
46 | GAUGAGCAAUAUUACGAUUU | -1.07 ± 0.14 | -2.1 ± 0.18
47 | AUCUAGCAAUAUUACGCGCG | -0.762 ± 0.095 | -0.257 ± 0.12
48 | GCCCAGCAAUAUUACGGGCG | -2.53 ± 0.091 | -1.7 ± 0.099
49 | CAGGAGCAAUAUUACGCUCU | -3.36 ± 0.26 | -2.41 ± 0.26
50 | UAAUAGCAAUAUUACGAGGA | -3.68 ± 0.25 | -2.62 ± 0.16
51 | GCGGAGCAAUAUUACGGGCA |  | -1.1 ± 0.47
52 | GGUCAGCAAUAUUACGAGAC | -2.27 ± 0.23 | -1.29 ± 0.31

Row | Sequence | self-splicing fitness (ln) (30 °C) | self-splicing fitness (ln) (37 °C)
53 | UAACAGCAAUAUUACGGGAA | -1.76 ± 0.13 | -1.35 ± 0.11
54 | UAACAGCAAUAUUACGGACC | -3.44 ± 0.43 | -1.98 ± 0.28
55 | GUCUAGCAAUAUUACGAUGA | -1.21 ± 0.28 | -0.329 ± 0.13
56 | GCACAGCAAUAUUACGGCGA | -1.16 ± 0.083 | -0.758 ± 0.095
57 | GAAAAGCAAUAUUACGAAGA | -2.88 ± 0.18 | -1.34 ± 0.13
58 | ACUCAGCAAUAUUACGCGCU | -1.41 ± 0.14 | -0.1 ± 0.16
59 | GUGGAGCAAUAUUACGCUAU | -2.85 ± 0.25 | 
60 | GCGAAGCAAUAUUACGGACG | -0.0597 ± 0.13 | -0.969 ± 0.2
61 | GGGAAGCAAUAUUACGGCUU | -2.11 ± 0.2 | -1.41 ± 0.23
62 | GAUUAGCAAUAUUACGGUGA | -1.31 ± 0.11 | -1.24 ± 0.098
63 | AAGCAGCAAUAUUACGAUAU | -0.287 ± 0.076 | -0.0114 ± 0.099
64 | AUCUAGCAAUAUUACGCUAG | -3.91 ± 0.27 | -3.5 ± 0.31
65 | AGAAAGCAAUAUUACGCGUC | -1.84 ± 0.12 | -1.32 ± 0.15
66 | GGGGAGCAAUAUUACGUUAC | -3.54 ± 0.38 | -1.07 ± 0.26
67 | GGCAAGCAAUAUUACGUUCU | -0.68 ± 0.089 | 0.436 ± 0.11
68 | UCCAAGCAAUAUUACGACUA | -1.2 ± 0.12 | 0.12 ± 0.1
69 | AUUGAGCAAUAUUACGGAUG | -3.43 ± 0.28 | -2.69 ± 0.38
70 | GAUUAGCAAUAUUACGGCGC | 0.24 ± 0.072 | 0.233 ± 0.084
71 | AUCGAGCAAUAUUACGCUCA | -1.09 ± 0.26 | -0.721 ± 0.4
72 | GCAGAGCAAUAUUACGGCCA |  | -2.11 ± 0.29
73 | UCGUAGCAAUAUUACGGACU | -3.21 ± 0.31 | -0.974 ± 0.21
74 | UGAAAGCAAUAUUACGAGCG | 0.46 ± 0.072 | -0.171 ± 0.085
75 | CACUAGCAAUAUUACGCUGA | -2.58 ± 0.23 | -1.51 ± 0.19
76 | ACGAAGCAAUAUUACGCUCG | -1.53 ± 0.14 | -1.17 ± 0.17
